Measurements reported in patent JP2003510672A.

Assays:
[1] = target: ヒト組換え型CD4 (RepliGen, USA) (human) (UniProt P01730); test: SPR (BIACORE 2000, 25 C), KD calculated as kd/ka; mimetic immobilised, soluble CD4 injected
[2] = target: ヒト組換え型CD4 (RepliGen, USA) (human) (UniProt P01730); test: SPR (BIACORE 2000, 25 C), mimetic immobilised on B1 chip, soluble CD4 injected at 16-330 nM

Question: Which results are given for “疑似体 Mk3Tyr-long1SH (cyclic peptide mimetic of the ST40 paratope; MK3Tyr with the Ile between Tyr140 and Asn144 replaced by Lys extended with 3-mercaptopropionic acid)”?
Answer: Kd [1]: 3.2 nM; koff [2]: 0.000264 s⁻¹; kon [2]: 82600 M⁻¹ s⁻¹
